These results are taken from patent US20210355229A1 (JIANGSU HENGRUI MEDICINE, published 2021).

The labels stand for the following.
T1: human OX40 on Jurkat-NF-Kb luc-hOX40 cells (human, UniProt P43489 29-277)
T1 sequence (looked up): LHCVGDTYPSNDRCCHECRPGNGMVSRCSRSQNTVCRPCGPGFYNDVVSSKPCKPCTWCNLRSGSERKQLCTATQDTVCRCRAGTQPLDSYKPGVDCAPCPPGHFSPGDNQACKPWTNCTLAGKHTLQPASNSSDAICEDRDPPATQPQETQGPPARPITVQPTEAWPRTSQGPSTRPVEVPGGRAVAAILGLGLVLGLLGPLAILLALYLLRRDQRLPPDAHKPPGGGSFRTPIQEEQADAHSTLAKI

T2: human OX40-FC-biotin (human OX40 recombinant protein with Fc tag, Acro Biosystems OX40-H5255, labeled with … (human, UniProt P43489 29-216, labeled with biotin (site not stated)))
T2 construct: range 29-216; Bought (Acro Biosystems OX40-H5255; printed once as OXO-H5255), expressed in HEK293; also called human Bio-OX40-FC; not shown: Fc tag of the bought protein
T2 sequence (looked up): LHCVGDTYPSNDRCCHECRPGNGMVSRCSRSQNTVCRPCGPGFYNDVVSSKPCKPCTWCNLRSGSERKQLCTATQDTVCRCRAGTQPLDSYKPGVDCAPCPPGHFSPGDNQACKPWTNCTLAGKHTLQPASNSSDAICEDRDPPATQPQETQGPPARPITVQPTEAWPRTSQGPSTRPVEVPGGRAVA

T3: human OX40 (antigen of the ELISA of Example 4) (human, UniProt P43489 29-216, limits assumed)
T3 construct: either human OX40-His or human OX40-Fc-biotin
T3 sequence (looked up): T2 sequence (looked up)

B1: chimeric antibody Ch2G3 (antibody, V domains shown)
VH: QVQLKESGPGLVASSQSLSITCTVSGFSLSRYSVHWVRQPPGKGLEWLGMIWDGGNTDYNSALKSRLSISKDNSKSQVFLKMNSLQTDDTAMYYCARNPLYFSYAMDYWGQGTSVTVSS
VL: DIQMTQSTSSLSASLGDRVTISCRASQDISNYLNWYQQKPDGTVKLLIIYTSRLQSGVPSRFSGSGSGTDYSLTISNLEQEDIATYFCQQVNTFPFTFGSGTKLEIK
B2: chimeric antibody Ch4B5 (antibody, V domains shown)
VH: QVQLKQSGPGLVQPSQSLSITCTVSGFSLTSYGLHWFRQSPGKGLEWLGVIWSGGSTDYNAAFISRLSISKDDSKSQVFFKMNSLQADDTAIYYCAREEYDVWGTGTTVTVSS
VL: B1 VL with S7T, T8A, I49Y, Q55H, I83V, V91G, F94L, F96W, S100G
B3: humanized antibody hu4B5-V1 (antibody, human IgG1, V domains shown)
VH: QVQLQESGPGLVKPSETLSLTCTVSGFSLTSYGLHWIRQPPGKGLEWIGVIWSGGSTDYNAAFISRVTISVDTSKNQFSLKLSSVTAADTAVYYCAREEYDVWGQGTTVTVSS
VL: DIQMTQSPSSLSASVGDRVTITCRASQDISNYLNWYQQKPGKVPKLLIYYTSRLHSGVPSRFSGSGSGTDFTLTISSLQPEDVATYYCQQGNTLPWTFGGGTKVEIK
notes: hu4B5 VH0 + hu4B5 VL0
B4: humanized antibody 2G3-hu3 (antibody, human IgG1, V domains shown)
VH: QVQLQESGPGLVKPSETLSLTCTVSGYSISRYSVHWVRQPPGKGLEWIGMIWDGGNTDYNSALKSRFTISRDNSKNTLYLQMNSLRAEDTAVYYCARNPLYFSYAMDYWGQGTLVTVSS
VL: B3 VL with V43A, H55Q, F71Y, V83F, G91V, L94F, W96F, G100Q, V104L
notes: hu2G3 VH1 + hu2G3 VL2
B5: humanized antibody 2G3-hu5 (antibody, human IgG1, V domains shown)
VH: B4 VH with S61A, S74A
VL: B3 VL with V43A, H55Q, F71Y, V83F, G91V, L94F, W96F, G100Q, V104L
notes: hu2G3 VH1.1 + hu2G3 VL2
B6: humanized antibody hu4B5-V19 (antibody, human IgG1, V domains shown)
VH: B3 VH with V71K, D72E, T73D
VL: B3 VL with K42G, F71Y, P80Q
notes: hu4B5 VH1 + hu4B5 VL3; human IgG1 / human Kappa constant regions
B7: humanized antibody 2G3-hu7 (antibody, human IgG1, V domains shown)
VH: QVQLQESGPGLVKPSQTLSLTCTVSGFSLSRYSVHWVRQPPGKGLEWIGMIWDGGNTDYAAPVKGRFTISRDDSKNTLYLQMNSLKTEDTAVYYCARNPLYFSYAMDYWGQGTLVTVSS
VL: B3 VL with V43A, H55Q, F71Y, V83F, G91V, L94F, W96F, G100Q, V104L
notes: hu2G3 VH1.2 + hu2G3 VL2
B8: humanized antibody hu4B5-V6 (antibody, human IgG1, V domains shown)
VH: B3 VH
VL: B3 VL with F71Y
notes: hu4B5 VH0 + hu4B5 VL1; human IgG1 / human Kappa constant regions
B9: humanized antibody hu4B5-V4 (antibody, human IgG1, V domains shown)
VH: B3 VH with Q5K, I37F, V71K, D72E, T73D, N76S, F78V
VL: B3 VL
notes: hu4B5 VH3 + hu4B5 VL0; human IgG1 / human Kappa constant regions
B10: humanized antibody hu4B5-V21 (antibody, human IgG1, V domains shown)
VH: B3 VH with Q5K, I37F, V71K, D72E, T73D, N76S, F78V
VL: B3 VL with K42G, F71Y, P80Q
notes: hu4B5 VH3 + hu4B5 VL3; human IgG1 / human Kappa constant regions
B11: humanized antibody hu4B5-V18 (antibody, human IgG1, V domains shown)
VH: B3 VH
VL: B3 VL with K42G, F71Y, P80Q
notes: hu4B5 VH0 + hu4B5 VL3; human IgG1 / human Kappa constant regions
B12: humanized antibody hu4B5-V2 (antibody, human IgG1, V domains shown)
VH: B3 VH with V71K, D72E, T73D
VL: B3 VL
notes: hu4B5 VH1 + hu4B5 VL0; human IgG1 / human Kappa constant regions
B13: humanized antibody hu4B5-V23 (antibody, human IgG1, V domains shown)
VH: B3 VH with V71K, D72E, T73D
VL: B3 VL with K42G, V43T, P44V, F71Y, Y87F
notes: hu4B5 VH1 + hu4B5 VL4; human IgG1 / human Kappa constant regions
B14: humanized antibody hu4B5-V15 (antibody, human IgG1, V domains shown)
VH: B3 VH
VL: B3 VL with K42G, F71Y
notes: hu4B5 VH0 + hu4B5 VL2; human IgG1 / human Kappa constant regions
B15: humanized antibody hu4B5-V22 (antibody, human IgG1, V domains shown)
VH: B3 VH
VL: B3 VL with K42G, V43T, P44V, F71Y, Y87F
notes: hu4B5 VH0 + hu4B5 VL4; human IgG1 / human Kappa constant regions
B16: humanized antibody hu4B5-V14 (antibody, human IgG1, V domains shown)
VH: B3 VH with Q5K, I37F, I48L, V67L, V71K, D72E, T73D, N76S, F78V
VL: B3 VL with K42G, V43T, P44V, F71Y, Y87F
notes: hu4B5 VH4 + hu4B5 VL4; human IgG1 / human Kappa constant regions
B17: humanized antibody hu4B5-V10 (antibody, human IgG1, V domains shown)
VH: B3 VH with Q5K, I37F, V71K, D72E, T73D, N76S, F78V
VL: B3 VL with F71Y
notes: hu4B5 VH3 + hu4B5 VL1; human IgG1 / human Kappa constant regions
B18: humanized antibody hu4B5-V25 (antibody, human IgG1, V domains shown)
VH: B3 VH with Q5K, I37F, V71K, D72E, T73D, N76S, F78V
VL: B3 VL with K42G, V43T, P44V, F71Y, Y87F
notes: hu4B5 VH3 + hu4B5 VL4; human IgG1 / human Kappa constant regions
B19: humanized antibody hu4B5-V8 (antibody, human IgG1, V domains shown)
VH: B3 VH with V71K, D72E, T73D
VL: B3 VL with F71Y
notes: hu4B5 VH1 + hu4B5 VL1; human IgG1 / human Kappa constant regions
B20: humanized antibody hu4B5-V16 (antibody, human IgG1, V domains shown)
VH: B3 VH with V71K, D72E, T73D
VL: B3 VL with K42G, F71Y
notes: hu4B5 VH1 + hu4B5 VL2; human IgG1 / human Kappa constant regions
B21: humanized antibody 2G3-hu1 (antibody, human IgG1, V domains shown)
VH: B4 VH
VL: DIQMTQSPSSLSASVGDRVTITCRASQDISNYLNWYQQKPDQSPKLLIIYTSRLQSGVPSRFSGSGSGTDYTLTISSLQPEDFATYYCQQVNTFPFTFGQGTKLEIK
notes: hu2G3 VH1 + hu2G3 VL1
B22: humanized antibody 2G3-hu6 (antibody, human IgG1, V domains shown)
VH: B7 VH
VL: B21 VL
notes: hu2G3 VH1.2 + hu2G3 VL1
B23: humanized antibody 2G3-hu2 (antibody, human IgG1, V domains shown)
VH: QVQLQESGPGLVKPSETLSLTCTVSGGSISRYSVHWIRQPPGKGLEWIGMIWDGGNTDYNSALKSRVTISVDTSKNQFSLKLSSVTAADTAVYYCARNPLYFSYAMDYWGQGTLVTVSS
VL: B21 VL
notes: hu2G3 VH2 + hu2G3 VL1
B24: humanized antibody 2G3-hu4 (antibody, human IgG1, V domains shown)
VH: B23 VH
VL: B21 VL with D41G, Q42K, S43A, I49Y
notes: hu2G3 VH2 + hu2G3 VL2
B25: murine monoclonal antibody m2G3 (antibody, V domains shown)
VH: B1 VH
VL: B1 VL
notes: Murine hybridoma monoclonal
B26: murine monoclonal antibody m4B5 (antibody, V domains shown)
VH: B2 VH
VL: B1 VL with S7T, T8A, I49Y, Q55H, I83V, V91G, F94L, F96W, S100G
notes: Murine hybridoma monoclonal

Numbering of substitutions follows the chain as printed.

One assay deals with T1, human OX40 on Jurkat-NF-Kb luc-hOX40 …. Description: cell-based or functional assay.
As to B1, the “EC50 (nM), in vitro activation of reporter gene (luciferase, Jurkat-NF-Kb luc-hOX40 cells with Raji cells, anti-CD3 coated)” value came to 0.637 nM. With B2, the “EC50 (nM), in vitro activation of reporter gene (luciferase, Jurkat-NF-Kb luc-hOX40 cells with Raji cells, anti-CD3 coated)” value is 0.559 nM.

For another assay, the target named is T2, human OX40-FC-biotin (human OX40 …). Description: capture ELISA, biotin-OX40-Fc. The method, then: 20xPBS buffer was diluted to 1 xwith deionized water. […] 100 μL of the diluted primary antibody was added to each well (the antibody to be tested was 5-fold diluted from the concentration of 10000 ng/ml, resulting in seven gradients, namely 10000 ng/ml, 2000 ng/ml, 400 ng/ml, 80 ng/ml, 16 ng/ml, 3.2 ng/ml, and 0.64 ng/ml, blank wells merely contained dilution solution, i.e., 2.5% skimmed milk in PBST), and incubated at 37° C. for 40 minutes. The plate was washed for 4 times with PBST, human OX40-FC-biotin (Acro biosystem, OXO-H5255, labeled biotin) was diluted with 2.5% skimmed milk in PBST, 100 μl was added to each well, incubated at 37° C. for 40 min, and the plate was washed for 4 times with PB ST. 100 μL TMB developing solution was added to each well, incubated for 3-15 minutes in dark at room temperature, 50 μl stop solution (1M sulfuric acid) was added to each well. The parameters were set for the microplate reader, the OD value was read at 450-630nm, and the test data were saved.
In general, EC50 refers to the midpoint of the concentration-response curve. As to B3, the EC50 is 0.59 µg/mL.

B4: the binding result is given as “binds”. B5: the binding result was “binds”. Same read-out and setting: under B6 stands “binds”. B7: the half-maximal effective concentration (EC50) was found to be 0.743 µg/mL.

As to B8, the binding result is reported as “binds”.

Turning to B9, the binding result is reported as “binds”.

On to B10, for which the binding result is on record as “binds”. Still for that read-out and setting: the same measure for B11: “binds”; for B12: “binds”.

With B13, the binding result is listed as “binds”. Regarding B14, the binding result is recorded as “binds”. Consider B15, for which the binding result is listed as “binds”. As for B16, the EC50 was 0.536 µg/mL. In the case of B17, the EC50 is 0.76 µg/mL. As for B18, the binding result was “binds”. Still for that read-out and setting: under B19 stands “binds”; under B20, “binds”. Regarding B21, the 50% effective concentration (EC50) worked out at 0.886 µg/mL. With B22, the EC50 worked out at 0.82 µg/mL. B23: the EC50 turned out to be 1.6 µg/mL.

For the molecule B24, the EC50 was found to be 2.27 µg/mL. Same read-out and setting: under B25 stands 0.867 µg/mL.

For the molecule B26, the EC50 was 0.58 µg/mL. Same read-out and setting: under B2 stands 0.208 µg/mL.

The target in another assay is T3, human OX40 (antigen of the ELISA of …). Description: ELISA on human OX40 (Example 4, steps as in Example 2), OD450 against log concentration of antibody. On the technique in general: An ELISA detects its analyte on a solid surface through an enzyme-linked reagent.
For orientation: EC50 (read off the curve) means the concentration at which the effect is half-maximal. Read a low EC50 (read off the curve) as greater potency. Consider B26, for which the concentration giving a half-maximal response (EC50 (read off the curve)) was around 0.04 µg/mL. On to B2, for which the “EC50 (read off the curve)” value was around 0.02 µg/mL.

Another assay shares this target. The description is as above. This is another data set of the same source.
Turning to B1, the concentration giving a half-maximal response (EC50 (read off the curve)) was around 0.01 µg/mL. Still for that read-out and setting: the same measure for B25: around 0.03 µg/mL.
